Results as given in patent US20250297030A1 (SHANDONG SIMCERE BIOPHARMACEUTICAL, published 2025).
Like-named read-outs stand apart in the source and are kept apart here.

Experiments:
[1] = biological target: T1, Human MUC17 ECD4131-his (His-tagged human MUC17 protein extracellular domain fusion protein) (human, UniProt Q685J3 4131-4393); test: ELISA on coated human MUC17 ECD4131-his, OD450
T1 construct: a truncation of the extracellular domain; also called human MUC17-his protein; human MUC17-His
Protocol: A human MUC17-his protein was diluted with PBS to a final concentration of […] and then added to a 96-well ELISA plate at 50 µL/well. The plate was incubated at 4° C. overnight. The next day, the plate was washed 2 times with PBST, and a blocking buffer [PBS+2% (w/w) BSA] was added for blocking at room temperature for 2 h. The blocking buffer was discarded, and the recombinant antibody and positive and negative control antibody with a starting concentration of 100 nM serially diluted by 3 folds were added at 50 μL/well. After incubation at 37° C. for 1 h, the plate was washed 3 times with PBST. A horseradish peroxidase (HRP)-labeled secondary antibody (purchased from Merck, Cat. No. AP113P) was added for incubation at 37° C. for 1 h, and the plate was washed 5 times with PBST. A TMB substrate was added at 50 μL/well for incubation at room temperature for 10 min, and then a stop solution (1.0 M HCl) was added at 50 µL/well. The OD₄₅₀ nm values were read by an ELISA plate reader (Multimode Plate Reader, EnSight, purchased from Perkin Elmer).

[2] = biological target: T2, Cyno MUC17 ECD3577-his (His-tagged cynomolgus monkey MUC17 protein extracellular domain fusion protein) (cynomolgus monkey); test: ELISA on coated monkey MUC17 ECD3577-His, OD450
T2 construct: also called monkey MUC17-his protein; monkey MUC17 ECD3577-His
T2 chain: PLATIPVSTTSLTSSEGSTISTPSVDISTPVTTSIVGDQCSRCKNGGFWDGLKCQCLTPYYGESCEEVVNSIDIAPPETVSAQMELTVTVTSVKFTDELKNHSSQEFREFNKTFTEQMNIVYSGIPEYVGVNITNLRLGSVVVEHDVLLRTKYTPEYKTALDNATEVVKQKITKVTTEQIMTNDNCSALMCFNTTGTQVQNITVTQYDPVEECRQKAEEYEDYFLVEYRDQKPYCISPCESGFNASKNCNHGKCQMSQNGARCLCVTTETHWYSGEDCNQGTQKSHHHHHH
Protocol: (§1) To assay the binding activity of the humanized antibodies with the monkey MUC17-his protein, the monkey MUC17-his protein was diluted with PBS to a final concentration of […] and subjected to ELISA assay and data analysis according to the method described in Example 3.3. The humanized antibodies SCR-7724, SCR-7782, SCR-7783, SCR-7784, and SCR-7785 have cross-binding activity with the monkey MUC17 protein, maintaining the binding ability of the recombinant antibody.

[3] = biological target: human MUC17 on NUGC4 endogenous tumor cells (human, UniProt Q685J3 26-4493); test: FACS on NUGC4 cells, MFI
Protocol: Then a complete medium was added to stop the digestion, and the cells were blown into a single cell suspension. After counting, the cells were centrifuged, and the cell pellet was resuspended to 2×10⁶ cells/mL in an FACS buffer (PBS+2% fetal bovine serum), and added to a 96-well FACS reaction plate at 100 µL/well. The plate was centrifuged, and the supernatant was discarded. An antibody sample to be tested (diluted in a 3-fold gradient from a starting concentration of 100 nM) was added at 50 µL/well and uniformly mixed with the cells, and the mixture was incubated at 4° C. for 1 h. […] The results were tested and analyzed by FACS (FACS Canto™, purchased from BD) after the plate was centrifuged and washed 3 times with a PBS buffer and resuspended with 100 μL of PBS. Data analysis was performed by software (FlowJo) to obtain the mean fluorescence intensity (MFI) of the cells. Then, analysis was performed by software (GraphPad Prism8), data were fitted, and EC50 values were calculated. As shown in FIGS. 3A-3B, the recombinant antibodies Lab315-huFc, Lab316-huFc, Lab320-huFc, Lab331-huFc, and Lab332-huFc are all capable of binding specifically to NUGC-4 cells.
The preparation of the assay cells and the antibodies to be tested and the assay were performed with reference to Example 3.4. […]

[4] = biological target: T2, Cyno MUC17 ECD3577-his (His-tagged …); test: ELISA on coated monkey MUC17 ECD3577-His, OD450
Protocol: as §1

[5] = biological target: T2, Cyno MUC17 ECD3577-his (His-tagged …); test: ELISA on coated monkey MUC17 ECD3577-His, OD450
Protocol: as §1

[6] = biological target: T1, Human MUC17 ECD4131-his (His-tagged …); test: SPR (Biacore 8K), antibody captured on Protein A
Protocol: The strength of antibody-antigen binding was assayed with a BIAcore 8K instrument using an Protein A capture method. First, Protein A was immobilized onto a CM4 chip (purchased from GE, BR-1005-34) using an amino coupling method. According to the instruction of the Amine Coupling Kit (purchased from GE, BR100633), NHS and EDC were mixed with HBS-EP+ pH 7.4 as a mobile phase to activate the chip for about 600 s; the Protein A was diluted to 50 µg/mL with 10 mM sodium acetate (pH 4.5) and injected for 600 s, and finally, the remaining activated sites were blocked with ethanolamine. Then, the affinity of the antibody for the antigen was assayed using a multi-cycle kinetic method; in each cycle, first, the antibody to be tested was captured using the Protein A chip, and then a single concentration of antigen protein was injected. The association and dissociation processes of the antibody with the antigen protein were recorded, and finally, the chip was regenerated using Glycine pH 1.5, wherein the mobile phase was HBS-EP+ (10 mM HEPES, 150 mM NaCl, 3 mM EDTA, 0.05% surfactant P20), the flow rate was […], the regeneration time was 30 s, and the assay temperature was 25° C. Finally, according to a 1:1 binding model, the data were analyzed, and the antibody-antigen binding kinetics parameters, including the association rate constant Ka, the dissociation rate constant Kd, the equilibrium dissociation constant KD, and the maximum binding signal Rmax, were fitted. The association rate (Ka), dissociation rate (Kd), and binding affinity (KD) of the recombinant antibodies Lab315-huFc, Lab316-huFc, Lab320-huFc, Lab331-huFc, and Lab332-huFc with the human MUC17 protein are shown in Table 5.

B1: 2D11-hIgG1 (antibody, V domains shown)
VH: QVQLVESGGGVVQPGRSLRLSCAASGFTFSNHGMHWVRQAPGKCLEWVAGIWSDASNKYYAEAVKGRFTISRDTSKNTLYLQMNSLRAEDTAVYYCARATYTTGWSYFDYWGQGTLVTVSS
VL: SYELTQSPSVSVSPGQTASITCSGDKLGDKYTSWYQQKPGQSPVLVIYHDRKRPSGIPERFSGSNSGNTATLTISGTQAMDEADYYCQAYDRSTAWVFGCGTKLTVLR
notes: Control antibody from WO2019133961A1, expressed as human IgG1 + kappa; also called 21D11; MUC17 control antibody
EC50 (read off the curve) [1]: ~0.02 nM | EC50 (read off the curve) [2]: ~0.04 nM | EC50 (read off the curve) [3]: ~0.1 nM | EC50 (read off the curve) [4]: ~0.05 nM | EC50 (read off the curve) [5]: ~0.01 nM | Kd [6]: 7.12 nM | koff [6]: 0.000753 s⁻¹ | kon [6]: 106000 M⁻¹ s⁻¹
